Publication PMC8244865, “Recruitment of phospholipase Cγ1 to the non-structural membrane protein pK15 of Kaposi Sarcoma-associated herpesvirus promotes its Src-dependent phosphorylation” (PLoS Pathogens, 2021)

B1: pK15 CT^WT: pK15 cytoplasmic tail fused to GST at its N-terminal end, phosphorylated in vitro by Src (protein)
chain: SQLLNEVELQEVNRDPPNVFGYASILVSGAEESREPSPQPDQSGMSILRVDGGSAFRIDTAQAATQPTDDLYEEVLFPRN
modifications: tyrosine-phosphorylated in vitro by Src; sites not stated for this construct; left off: GST, N-terminal, kept

Tests used:
Format in all cases: binding
[1] = system: PLCγ1 nSH2 domain (in tSH2 aa 545–772); assay: crystal structure with truncated PLCγ1 tSH2, nSH2 site; conditions: truncated tSH2 (aa 545–772), resolution 2.1 Å
Procedure: A shortened version of the PLCγ1 tSH2 domain (aa 545–772) lacking the linker peptide connecting the PLCγ1 cSH2 and SH3 domains (see Results section) was cloned into a pET28a vector carrying an N-terminal His Tag and a SUMO sequence. Expression was carried out in E. coli and the protein was purified to homogeneity as described above. His-Tag and SUMO were proteolytically removed using SUMO protease (SIGMA) following the manufacturer’s instructions, and the cleaved protein purified on a HisTrap column. Fractions containing cleaved protein were further purified by size exclusion chromatography (SEC) using a Superdex 75 26/600 column (GE Healthcare) equilibrated with 50mM Tris pH7.5, 150mM NaCl and 1mM TCEP buffer. The purified protein in SEC buffer was added to lyophilized phosphorylated 12mer pK15 peptide (DDLpYEEVLFPRN) in a 1:8 molar ratio (Protein: peptide) at a final concentration of 3mg/ml of peptide and 7.5mg/ml protein. Crystals were grown at 293 K using the sitting-drop vapor diffusion method in drops containing 1μl protein solution mixed with 1 μL reservoir solution containing 30% PEG 4000, 0.1M TrisHCl pH 8.5 and 0.2M sodium acetate. The crystals were flash frozen in the mother liquor containing 30% ethylene glycol and diffraction data were collected at P13 at DESY-Hamburg. Data were processed, scaled and reduced with XDS [75], Pointless and programs from the CCP4 suite. […]

PLCγ1 tSH2 domain = assay: AlphaLISA, PLCγ1 tSH2; conditions: phosphorylated by 2xStrep-Src, 300 nM each protein, 1 h room temperature, 615 nm, at least two independent experiments
Procedure: (§1) Fig 4 The PLCγ1 cSH2 domain is required for the binding of PLCγ1 to phosphorylated pK15 in vitro and may serve as a dominant-negative inhibitor. GST-fused pK15 cytoplasmic tail WT (A), or its truncated mutant N2 [51] (B), were phosphorylated in vitro by 2xStrep-Src and an AlphaLISA was performed with the indicated His-tagged fragments of PLCγ1. Mean and standard deviation from at least two independent experiments with two technical replicates each are depicted. GST fusion proteins of the N1 (C) or N2 (D) truncation mutants of the pK15 cytoplasmic tail were phosphorylated in vitro by 2xStrep-Src and their interaction with recombinant purified PLCγ1 tSH2 (tandem SH2) or SA (γ-specific array) domains was measured by AlphaLISA in the presence of increasing concentrations (300 nM, 600 nM, 900 nM, 1200 nM) of the purified PLCγ1 cSH2. […] After 48h lysates were collected and analysed by Western blot using an antibody to PLCγ1 pY^783 to assess the level of PLCγ1 phosphorylation. (F) The intensities of the pPLCγ1 bands shown in panel E were quantified by densitometry, normalized to the values obtained with the empty vector (EV) in the presence of pK15, and plotted as relative values. […]
(§2) His-tagged PLCγ1 (SA, tSH2 or the isolated SH2 domains) was incubated at room temperature with GST-tagged K15P or its mutants for 1 hour. […] Emission at 615 nm was detected on BioTek Synergy 2 plate reader.

PLCγ1 SA domain = assay: AlphaLISA, PLCγ1 SA; conditions: phosphorylated by 2xStrep-Src, 300 nM each protein, 1 h room temperature, 615 nm, at least two independent experiments
Procedure: as §1, §2

Molecule	binding site occupancy in crystal structure [1]	interaction (AlphaLISA) (PLCγ1 tSH2 domain)	interaction (AlphaLISA) (PLCγ1 tSH2 domain; listed as pK15 CT^N2)	interaction (AlphaLISA) (PLCγ1 SA domain)	interaction (AlphaLISA) (PLCγ1 SA domain; listed as pK15 CT^N2)
DDLpYEEVLFPRN [pK15 12mer, phosphorylated peptide representing the last 12 amino acids of pK15 CT (DDLp…)]	at lower occupancy peptide binding to the nSH2 domain was also observed	–	–	–	–
B1	–	bound more strongly to the PLCγ1 tSH2 domain than to the PLCγ1 SA domain	binds strongly to the PLCγ1 tSH2 domain	does interact with the PLCγ1 SA	only bound weakly to PLCγ1 SA
